Test results: patent US20150203577A1 (Chugai, published 2015)

T1: mouse FcγRII (mouse, UniProt P08101 30-210)
T1 construct: Extracellular domain with C-terminal His tag, made in FreeStyle 293 cells; also called mFcγRII; mFcgRII
T1 sequence: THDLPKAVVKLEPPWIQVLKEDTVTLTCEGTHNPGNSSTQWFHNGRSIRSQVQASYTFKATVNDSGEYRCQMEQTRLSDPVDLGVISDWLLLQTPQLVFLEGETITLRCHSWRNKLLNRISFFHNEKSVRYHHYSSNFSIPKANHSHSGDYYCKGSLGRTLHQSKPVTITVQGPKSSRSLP

T2: mouse FcγRIII (mouse, UniProt P08508 31-215)
T2 construct: Extracellular domain with C-terminal His tag, made in FreeStyle 293 cells; also called mFcγRIII; mFcgRIII
T2 chain: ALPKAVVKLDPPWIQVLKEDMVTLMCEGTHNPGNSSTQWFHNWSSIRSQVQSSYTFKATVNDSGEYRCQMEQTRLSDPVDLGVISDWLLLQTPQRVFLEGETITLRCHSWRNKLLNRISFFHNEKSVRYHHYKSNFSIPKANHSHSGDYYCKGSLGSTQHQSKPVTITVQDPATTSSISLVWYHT


What was measured:
[1] = target: T1, mouse FcγRII; test: SPR (Biacore), antibody captured on Protein L
[2] = target: T2, mouse FcγRIII; test: SPR (Biacore), antibody captured on Protein L
[3] = target: T1, mouse FcγRII; test: SPR (Biacore), KD of H237-mIgG1/MRAL-k0 / KD of variant
Protocol: (§1) Each altered antibody was analyzed for its interaction with each Fcγ receptor prepared above using Biacore T100 (GE Healthcare Japan Corp.), Biacore T200 (GE Healthcare Japan Corp.), Biacore A100, or Biacore 4000. The running buffer used was HBS-EP+ (GE Healthcare Japan Corp.). The assay temperature was set to 25° C. The sensor chips used were chips prepared by immobilizing Protein L (ACTIGEN or BioVision) onto Series S Sensor Chip CM5 (GE Healthcare Japan Corp.) or Series S Sensor Chip CM4 (GE Healthcare Japan Corp.) by the amine coupling method.
(§2) In order to calculate the KD value of each altered antibody for FcγR, kinetic analysis was conducted according to the following method: first, the antibody of interest was captured onto any of these chips and allowed to interact with mFcγR diluted with a running buffer. For the obtained sensorgram, the assay results were globally fit into the 1:1 Langmuir binding model using Biacore Evaluation Software to calculate an association rate constant ka (L/mol/s) and a dissociation rate constant kd (1/s). From these values, the dissociation constant KD (mol/L) was calculated.

[4] = target: T2, mouse FcγRIII; test: as above
Protocol: as §1, §2

| Binder | Kd [1] | Kd [2] | relative mFcγRII-binding activity (mIgG1 = 1) [3] | relative mFcγRIII-binding activity (mIgG1 = 1) [4] |
| --- | --- | --- | --- | --- |
| H237-MB526/MRAL-k0 (antibody, mouse IgG1, kappa, copies: 2 + 2) heavy: QVQLQESGPGLVKPSETLSLTCAVSGHSISHDHAWSWVRQPPGEGLEWIGFISYSGITNYNPSLQGRVTISRDNSKNTLYLQMNSLRAEDTAVYYCARSLARTTAMDYWGEGTLVTVSSAKTTPPSVYPLAPGSAAQTNSMVTLGCLVKGYFPEPVTVTWNSGSLSSGVHTFPAVLQSDLYTLSSSVTVPSSTWPSETVTCNVAHPASSTKVDKKIVPRDCGCKPCICQPNEVEEVFIFPPKPKDVLTITLTPKVTCVVVDISKDDPEVQFSWFVDDVEVHTAQTQPREEQFNLTFRSVSELPIMHQDWLNGKEFKCRVNSAAFPAPIEKTISKTKGRPKAPQVYTIPPPKEQMAKDKVSLTCMITDFFPEDITVEWQWNGQPAENYKNTQPIMDTDGSYFVYSKLNVQKSNWEAGNTFTCSVLHEGLHNHHTEKSLSHSPGK light: not shown | 0.904 nM | 33 nM | 232 fold | 8.5 fold |
| H237-MB853/MRAL-k0 (antibody, mouse IgG1, kappa, copies: 2 + 2) heavy: QVQLQESGPGLVKPSETLSLTCAVSGHSISHDHAWSWVRQPPGEGLEWIGFISYSGITNYNPSLQGRVTISRDNSKNTLYLQMNSLRAEDTAVYYCARSLARTTAMDYWGEGTLVTVSSAKTTPPSVYPLAPGSAAQTNSMVTLGCLVKGYFPEPVTVTWNSGSLSSGVHTFPAVLQSDLYTLSSSVTVPSSTWPSETVTCNVAHPASSTKVDKKIVPRDCGCKPCICEPNEVELVFIFPPKPKDVLTITLTPKVTCVVVDISKDDPEVQFSWFVDDVEVHTAQTQPREELFNSTFRSVSELPIMHQDWLNGKEFKCRVNSDGFPAYIEKTISKTKGRPKAPQVYTIPPPKEQMAKDKVSLTCMITDFFPEDITVEWQWNGQPAENYKNTQPIMDTDGSYFVYSKLNVQKSNWEAGNTFTCSVLHEGLHNHHTEKSLSHSPGK light: not shown | 5.99 nM | 249 nM | 35 fold | 1.1 fold |
| H237-MB541/MRAL-k0 (antibody, copies: 2 + 2) heavy: QVQLQESGPGLVKPSETLSLTCAVSGHSISHDHAWSWVRQPPGEGLEWIGFISYSGITNYNPSLQGRVTISRDNSKNTLYLQMNSLRAEDTAVYYCARSLARTTAMDYWGEGTLVTVSSAKTTPPSVYPLAPGSAAQTNSMVTLGCLVKGYFPEPVTVTWNSGSLSSGVHTFPAVLQSDLYTLSSSVTVPSSTWPSETVTCNVAHPASSTKVDKKIVPRDCGCKPCICEPNEVEMVFIFPPKPKDVLTITLTPKVTCVVVDISKDDPEVQFSWFVDDVEVHTAQTQPREEQFNLTFRSVSELPIMHQDWLNGKEFKCRVNSAAFPAPIERTISKTKGRPKAPQVYTIPPPKEQMAKDKVSLTCMITDFFPEDITVEWQWNGQPAENYKNTQPIMDTDGSYFVYSKLNVQKSNWEAGNTFTCSVLHEGLHNHHTEKSLSHSPGK light: not shown | 2.04 nM | 86.4 nM | 103 fold | 3.3 fold |
| H237-MB723/MRAL-k0 (antibody, mouse IgG1, kappa, copies: 2 + 2) heavy: QVQLQESGPGLVKPSETLSLTCAVSGHSISHDHAWSWVRQPPGEGLEWIGFISYSGITNYNPSLQGRVTISRDNSKNTLYLQMNSLRAEDTAVYYCARSLARTTAMDYWGEGTLVTVSSAKTTPPSVYPLAPGSAAQTNSMVTLGCLVKGYFPEPVTVTWNSGSLSSGVHTFPAVLQSDLYTLSSSVTVPSSTWPSETVTCNVAHPASSTKVDKKIVPRDCGCKPCICEDYEEEDVFIFPPKPKDVLTITLTPKVTCVVVDISKDDPEVQFSWFVDDVEVHTAQTQPREEQFNSTFRSVSELPIMHQDWLNGKEFKCRVNSAAFPAPIEKTISKTKGRPKAPQVYTIPPPKEQMAKDKVSLTCMITDFFPEDITVEWQWNGQPAENYKNTQPIMDTDGSYFVYSKLNVQKSNWEAGNTFTCSVLHEGLHNHHTEKSLSHSPGK light: not shown | 19 nM | 645 nM | 11 fold | 0.4 fold |
| H237-MB546/MRAL-k0 (antibody, copies: 2 + 2) heavy: QVQLQESGPGLVKPSETLSLTCAVSGHSISHDHAWSWVRQPPGEGLEWIGFISYSGITNYNPSLQGRVTISRDNSKNTLYLQMNSLRAEDTAVYYCARSLARTTAMDYWGEGTLVTVSSAKTTPPSVYPLAPGSAAQTNSMVTLGCLVKGYFPEPVTVTWNSGSLSSGVHTFPAVLQSDLYTLSSSVTVPSSTWPSETVTCNVAHPASSTKVDKKIVPRDCGCKPCICEPNEVEMVFIFPPKPKDVLTITLTPKVTCVVVDISKDDPEVQFSWFVDDVEVHTAQTQPREEQFNLTFRSVSELPIMHQDWLNGKEFKCRVDSAAFPAPIERTISKTKGRPKAPQVYTIPPPKEQMAKDKVSLTCMITDFFPEDITVEWQWNGQPAENYKNTQPIMDTDGSYFVYSKLNVQKSNWEAGNTFTCSVLHEGLHNHHTEKSLSHSPGK light: not shown | 1.33 nM | 50 nM | 158 fold | 5.6 fold |
| H237-MB722/MRAL-k0 (antibody, copies: 2 + 2) heavy: QVQLQESGPGLVKPSETLSLTCAVSGHSISHDHAWSWVRQPPGEGLEWIGFISYSGITNYNPSLQGRVTISRDNSKNTLYLQMNSLRAEDTAVYYCARSLARTTAMDYWGEGTLVTVSSAKTTPPSVYPLAPGSAAQTNSMVTLGCLVKGYFPEPVTVTWNSGSLSSGVHTFPAVLQSDLYTLSSSVTVPSSTWPSETVTCNVAHPASSTKVDKKIVPRDCGCKPCICEAYEEEDVFIFPPKPKDVLTITLTPKVTCVVVDISKDDPEVQFSWFVDDVEVHTAQTQPREEQFNSTFRSVSELPIMHQDWLNGKEFKCRVNSAAFPAPIEKTISKTKGRPKAPQVYTIPPPKEQMAKDKVSLTCMITDFFPEDITVEWQWNGQPAENYKNTQPIMDTDGSYFVYSKLNVQKSNWEAGNTFTCSVLHEGLHNHHTEKSLSHSPGK light: not shown | 8.04 nM | 341 nM | 26.1 fold | 0.8 fold |
| H237-MB528/MRAL-k0 (antibody, mouse IgG1, kappa, copies: 2 + 2) heavy: QVQLQESGPGLVKPSETLSLTCAVSGHSISHDHAWSWVRQPPGEGLEWIGFISYSGITNYNPSLQGRVTISRDNSKNTLYLQMNSLRAEDTAVYYCARSLARTTAMDYWGEGTLVTVSSAKTTPPSVYPLAPGSAAQTNSMVTLGCLVKGYFPEPVTVTWNSGSLSSGVHTFPAVLQSDLYTLSSSVTVPSSTWPSETVTCNVAHPASSTKVDKKIVPRDCGCKPCICQPNEVEEVFIFPPKPKDVLTITLTPKVTCVVVDISKDDPEVQFSWFVDDVEVHTAQTQPREEQFNLTFRSVSELPIMHQDWLNGKEFKCRVNSDAFPAPIEKTISKTKGRPKAPQVYTIPPPKEQMAKDKVSLTCMITDFFPEDITVEWQWNGQPAENYKNTQPIMDTDGSYFVYSKLNVQKSNWEAGNTFTCSVLHEGLHNHHTEKSLSHSPGK light: not shown | 0.56 nM | 19.3 nM | 375 fold | 14.6 fold |
| H237-MB855/MRAL-k0 (antibody, mouse IgG1, kappa, copies: 2 + 2) heavy: QVQLQESGPGLVKPSETLSLTCAVSGHSISHDHAWSWVRQPPGEGLEWIGFISYSGITNYNPSLQGRVTISRDNSKNTLYLQMNSLRAEDTAVYYCARSLARTTAMDYWGEGTLVTVSSAKTTPPSVYPLAPGSAAQTNSMVTLGCLVKGYFPEPVTVTWNSGSLSSGVHTFPAVLQSDLYTLSSSVTVPSSTWPSETVTCNVAHPASSTKVDKKIVPRDCGCKPCICEPNEVELVFIFPPKPKDVLTITLTPKVTCVVVDISKDDPEVQFSWFVDDVEVHTAQTQPREELFNSTFRSVSELPIMHQDWLNGKEFKCRVNSDGFPAPIERTISKTKGRPKAPQVYTIPPPKEQMAKDKVSLTCMITDFFPEDITVEWQWNGQPAENYKNTQPIMDTDGSYFVYSKLNVQKSNWEAGNTFTCSVLHEGLHNHHTEKSLSHSPGK light: not shown | 5.81 nM | 248 nM | 36.2 fold | 1.1 fold |
| H237-MB719/MRAL-k0 (antibody, mouse IgG1, kappa, copies: 2 + 2) heavy: QVQLQESGPGLVKPSETLSLTCAVSGHSISHDHAWSWVRQPPGEGLEWIGFISYSGITNYNPSLQGRVTISRDNSKNTLYLQMNSLRAEDTAVYYCARSLARTTAMDYWGEGTLVTVSSAKTTPPSVYPLAPGSAAQTNSMVTLGCLVKGYFPEPVTVTWNSGSLSSGVHTFPAVLQSDLYTLSSSVTVPSSTWPSETVTCNVAHPASSTKVDKKIVPRDCGCKPCICEPNEVEQVFIFPPKPKDVLTITLTPKVTCVVVDISKDDPEVQFSWFVDDVEVHTAQTQPREEQFNSTFRSVSELPIMHQDWLNGKEFKCRVNSAAFPAPIEKTISKTKGRPKAPQVYTIPPPKEQMAKDKVSLTCMITDFFPEDITVEWQWNGQPAENYKNTQPIMDTDGSYFVYSKLNVQKSNWEAGNTFTCSVLHEGLHNHHTEKSLSHSPGK light: not shown | 2.98 nM | 122 nM | 70.4 fold | 2.3 fold |
